Laboratory results published in patent US20130183315A1 (GLENMARK PHARMACEUTICALS S A, published 2013).
Numbering of substitutions follows the chain as printed. Blank lines part the entries; values can stand above or below the binder they belong to.

How the values were obtained:
[1] = molecular target: T1, recombinant human OX40-his protein (human, UniProt P43489 29-214); assay: SPR (BIAcore): antibody captured on protein A chip, human OX40-his as analyte; traces aligned at 0 s, falling phase only
T1 construct: Secretion driven by the native signal peptide of human TNFRSF4; also called recombinant histidine tagged human OX40 receptor extracellular domain; recombinant monovalent human OX40 receptor extracellular domain
T1 sequence: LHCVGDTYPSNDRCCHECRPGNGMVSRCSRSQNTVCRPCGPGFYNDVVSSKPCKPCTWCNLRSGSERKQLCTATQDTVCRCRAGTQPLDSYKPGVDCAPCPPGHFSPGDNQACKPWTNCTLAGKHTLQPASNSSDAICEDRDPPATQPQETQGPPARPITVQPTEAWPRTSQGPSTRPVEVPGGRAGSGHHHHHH
Method: (§1) Kinetic binding affinity constants (KD) were measured on protein-A captured antibody using recombinant histidine tagged human OX40 receptor extracellular domain as described in Example 1 as analyte. Measurements were conducted on a BIAcore 2000 (GE Healthcare—BIAcore, Uppsala, Sweden) at room temperature, and analyzed with the BiaEvaluation software (BIAcore; v4.1).
A CMS research grade sensor chip (GE Healthcare Europe GmbH, Glattbrugg, Switzerland; BR-1000-14) was activated by injecting 35 μl of a 1:1 N-hydroxysulfosuccinimide (NHS)/1-Ethyl-3-[3-dimethylaminopropyl]carbodiimide Hydrochloride (EDC) solution (v/v; 5 μl/min flow-rate; on flow paths 1 and 2). Protein-A (ref. P7837; Sigma-Aldrich Chemie GmbH, Buchs, Switzerland) was diluted to a final concentration of 50 μg/ml in acetate buffer pH 4.5 (GE, BR-1003-50; one pH unit below pI) and subsequently immobilized on the previously activated CMS sensor chip by injecting 35 μl on both flow path 1 and 2 (5 μl/min); this corresponded to approximately 1500 response units (RUs). The protein-A-CMS sensor chip was then deactivated by injecting 35 μl of ethanolamine solution (5 μl/min). Finally, two injections of 10 μl of glycine solution (GE, ref BR-1003-54; 10 mM; pH 1.5) were performed to release non-crosslinked protein-A molecules. […]

[2] = molecular target: T1, recombinant human OX40-his protein; assay: SPR, antibody captured on protein A, OX40-his as analyte
Method: as §1
(§2) A CMS research grade sensor chip (GE Healthcare Europe GmbH, Glattbrugg, Switzerland; BR-1000-14) was activated by injecting 35 μl of a 1:1 N-hydroxysulfosuccinimide (NHS)/1-Ethyl-3-[3-dimethylaminopropyl]carbodiimide Hydrochloride (EDC) solution (v/v; 5 μl/min flow-rate; on flow paths 1 and 2). Protein-A (ref. P7837; Sigma-Aldrich Chemie GmbH, Buchs, Switzerland) was diluted to a final concentration of 50 μg/ml in acetate buffer pH 4.5 (GE, BR-1003-50; one pH unit below pI) and subsequently immobilized on the previously activated CMS sensor chip by injecting 35 μl on both flow path 1 and 2 (5 μl/min); this corresponded to approximately 1500 response units (RUs). The protein-A-CMS sensor chip was then deactivated by injecting 35 μl of ethanolamine solution (5 μl/min). Finally, two injections of 10 μl of glycine solution (GE, ref BR-1003-54; 10 mM; pH 1.5) were performed to release non-crosslinked protein-A molecules.
(§3) 10 μl of this diluted stock were subsequently injected on the flow-path 2 of the protein-A CMS chip (30 μl/min) to reach 200-250 RUs. Following this capture step, the recombinant histidine tagged human OX40 receptor extracellular domain was injected at different concentrations (50 nM to 0.4 μM) on the flow-path 1 and 2 (flow-path 1 being used as reference) at a 30 μl/min flow rate. After each binding event, surface was regenerated with glycine buffer pH 1.5 injected for 1 min (10 μl/min)

[3] = molecular target: T2, rat OX40 extracellular region Fc fusion protein (rat; human, UniProt P15725 20-210); assay: ELISA on coated OX40 Fc fusion (2 µg/mL), anti-human F(ab')2-HRP detection
T2 construct: also called RRRR; rat OX40 protein
Method: (§4) Rat and human-rat OX40 proteins were formatted as Fc fusions proteins according to the method described in Example 1. For the ELISA, OX40 proteins were coated at 2 μg/mL, in PBS, overnight at 4° C. on high binding 96-well plates (Coastar). The plates were blocked with PBS 2% Bovine Serum Albumin (BSA) before incubation with the VH6/VL9 antibody or isotype control antibody. The plates were then washed and incubated with goat-anti human Ig F(ab′)2 fragment specific-HRP (Jackson ImmunoResearch Europe Ltd, Newmarket, UK). After washing, the plates were incubated with TMB substrate (Bio-Rad Laboratories AG, Reinach, Switzerland) to reveal antibody binding. The reaction was stopped by adding 2M H₂SO₄ and the optical density was read at 450 nm (OD 450 nm) on a Synergy HT2 spectrophotometer (Biotek, USA; distributor: WITTEC AG, Littau, Switzerland).
(§5) A binding ELISA was performed to test the reactivity of the VH6/VL9 antibody on human OX40 extracellular region (abbreviated HHHH with SEQ ID NO: 11), rat OX40 extracellular region (abbreviated RRRR with SEQ ID NO: 52), and on four human-rat chimeric proteins: RHRR (SEQ ID NO: 53), HRRR (SEQ ID NO: 54), HHRR (SEQ ID NO: 55), and RRHH (SEQ ID NO: 56).

[4] = molecular target: T3, chimeric RRHH OX40 protein (Fc fusion) (human-rat chimera; human); assay: as above
T3 chain (part 1 of 2): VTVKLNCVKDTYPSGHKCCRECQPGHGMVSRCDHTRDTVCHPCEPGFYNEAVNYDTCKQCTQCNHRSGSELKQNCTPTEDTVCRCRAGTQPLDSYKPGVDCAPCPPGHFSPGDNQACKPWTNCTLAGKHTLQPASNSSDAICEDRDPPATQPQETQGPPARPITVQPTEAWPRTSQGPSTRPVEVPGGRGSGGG
T3 chain (part 2 of 2): SAHHHHHH
Method: as §4, §5

[5] = molecular target: T4, human OX40 expressed on the surface of human activated lymphocytes (human, UniProt P43489 29-277); assay: cell-based or functional assay
T4 sequence: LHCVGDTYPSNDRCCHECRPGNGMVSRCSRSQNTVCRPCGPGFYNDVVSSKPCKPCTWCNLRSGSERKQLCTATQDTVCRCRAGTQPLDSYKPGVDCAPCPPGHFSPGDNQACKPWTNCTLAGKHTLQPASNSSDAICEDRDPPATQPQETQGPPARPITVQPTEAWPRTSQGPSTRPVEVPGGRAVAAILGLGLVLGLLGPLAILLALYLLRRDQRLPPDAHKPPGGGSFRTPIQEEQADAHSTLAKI

[6] = molecular target: T1, recombinant human OX40-his protein; assay: SPR (BIAcore): antibody captured on protein A chip, human OX40-his as analyte; analyte concentration not given
Method: as §1, §2, §3

[7] = molecular target: T5, recombinant human OX40-Fc protein (human, UniProt P43489 29-214); assay: blocking ELISA on coated human OX40-Fc; blocked ligand: biotinylated recombinant human OX40L, streptavidin-HRP detection
T5 construct: also called human TNFRSF4 extracellular domain-Fc fusion protein; HHHH; not shown: Fc region of a human IgG1, EU positions 223-451 as printed
Method: In order to determine if the generated anti-OX40 antibodies can block the binding of OX40L to the OX40 receptor, a blocking ELISA was developed. Ninety-six well-microtiter plates (Costar, USA; distributor VWR AG, Nyon, Switzerland) were coated with 100 μl of recombinant human OX40-Fc (see Example 1) at 2 μg/ml in PBS. Plates were incubated overnight at 4° C. and were then blocked with PBS 2% BSA at RT for one hour. The blocking solution was removed and the hybridoma supernatants or purified antibodies were added to the plate. Five minutes later, 50 μl of biotinylated-recombinant human OX40L at 0.04 mg/ml was added to each well. Plates were incubated at RT for 60 minutes, then washed nine times with PBS 0.01% Tween-20 and HRP-streptavidin (Sigma-Aldrich Chemie GmbH, Buchs, Switzerland) was added at a dilution of 1:2000. Plates were incubated for 30 minutes at RT, washed 9 times with PBS 0.01% Tween-20 and the TMB substrate (Bio-rad Laboratories AG, Reinach, Switzerland) was added to the plates and the reaction stopped after 6 minutes by adding H₂SO₄. Absorbance was then read at 450 nm by a microplate reader (Biotek, USA; distributor: WITTEC AG, Littau, Switzerland).

[8] = molecular target: T1, recombinant human OX40-his protein; assay: SPR, antibody captured on protein A, OX40-his as analyte, duplicates; lower of the two duplicate measurements
Method: as §1, §3
Measurements were performed in duplicates with the captured chimeric 1D4 anti-human OX40 antibody immobilized onto the protein-A sensor chip and the recombinant histidine tagged human OX40 receptor extracellular domain as analyte.

B1: VH4/VL9 (antibody, human IgG1, kappa, V domains shown)
VH: QVTLKESGPALVKPTQTLTLTCSFSGFSLSTSGMGVSWIRQPPGKALEWIAHIWWDDDKYYSTSLKTRLTISKDTSKNQVVLTMTNMDPVDTATYYCARIDWDGFAYWGQGTLVTVSS
VL: EIVLTQSPATLSLSPGERATLSCRASSSVSYMHWYQQKPGQAPRPWIYATSNRATGIPARFSGSGSGTDYTLTISSLEPEDFAVYYCQQWSSNPWTFGQGTKVEIKR
notes: Humanized, IGHG1, kappa
binding result [1]: binds

B2: VH5/VL9 (antibody, human IgG1, kappa, V domains shown)
VH: B1 VH with S62N, S64A
VL: B1 VL
notes: Humanized, IGHG1, kappa
binding result [1]: binds

B3: VH6/VL9 antibody (antibody, human IgG1, kappa, V domains shown)
VH: B1 VH with S37G, S62N, S64A
VL: B1 VL
notes: Humanized, IGHG1, kappa; also called humanized anti-OX40 antibody VH6/VL9; VH6/VL9 IGHG1 format
Kd [2]: 101 nM
koff [2]: 0.00356 s⁻¹
kon [2]: 35400 M⁻¹ s⁻¹
binding result [3]: no binding (tested: not printed)
binding result [4]: no binding (tested: not printed)
inhibition of mixed lymphocyte reaction (3H thymidine incorporation), EC50 [5]: ~0.1 µg/mL

Other lines, results leading:

binding result [6]: binds
B4: VH5/VL5 (antibody, human IgG1, kappa)
heavy: not shown
light: EIVLTQSPATLSLSPGERATLSCRASSSVSYYMAWYQQKPGQAPRPWIYATSNRATGIPARFSGSGSGTDYTLTISSLEPEDFAVYYCQQWSSNPWTFGQGTKVEIKRTVAAPSVFIFPPSDEQLKSGTASVVCLLNNFYPREAKVQWKVDNALQSGNSQESVTEQDSKDSTYSLSSTLTLSKADYEKHKVYACEVTHQGLSSPVTKSFNRGEC
notes: Humanized, IGHG1, kappa

binding result [6]: binds
B5: VH5/VL6 (antibody, human IgG1, kappa)
heavy: not shown
light: B4 light with E1Q
notes: Humanized, IGHG1, kappa

IC50 (read off the curve) [7]: ~0.3 µg/mL
Kd [2]: 91 nM
koff [2]: 0.00308 s⁻¹
kon [2]: 34000 M⁻¹ s⁻¹
Kd [8]: 91 to 116 nM
B6: chimeric 1D4 antibody (antibody, human IgG1, kappa, V domains shown)
VH: QVTLKESGPGILQPSQTLSLTCSFSGFSLSTSGMGVGWIRQPSGKGLEWLAHIWWDDDKYYNTALKSGLTISKDTSKNQVFLKIASVDTTDTATYYCARIDWDGFAYWGQGTLVTVSS
VL: QIVLTQSPAILSASPGEKVTMTCRASSSVSYMHWYQQKPGSSPKPWIYATSNLASGVPARFSGSGSGTSYSLTINRVEAEDAATYYCQQWSSNPWTFGGGTKLEIKR
notes: Biotinylated for the staining of cynomolgus cells; also called 1D4 chimera; 1D4 chimeric antibody
